Reference: patent publication US20220042033A1, “COMPOSITION AND METHOD FOR CONFERRING AND/OR ENHANCING TOLERANCE AGAINST HERBICIDES BY USING VARIANTS OF PPO” (FarmHannong Co., Ltd., priority 2017, published 2022)
Substitutions are numbered along the chain they refer to. In names and notes the source's numbering stands.

B1: A215L: ApPPO1 (SEQ ID NO: 1) variant (protein)
chain: MPFTHLKPLNRLLGSPRARHPHVAPQAVSVTNTSTTRPGGRSSAPGIPGDAEYDVVIVGAGISGLTTAQALAKQYSDAVPRLLVTEARDCVGGNIITRRDGGYQWEEGPNSFQPSDAVLRAAVDAGVADRLVLGDPKAPRYVYWGGRLRATPSGPDVLTFDLLSLWGKLRAGLGAAGFKAPLPEREESVKEFVTRNLGEEVFQRLIEPFCSGVYLGDPAKLSMKAAFGKVYDLEKGGGSIVGGVLALMKARKQKPPEPRPADLPPKPKGQTVGSFDKGLVTLPSAIAEELGDRVVTGWKLESIDRSGDRFQLTYDTPQGRKKVSARSVALTVPAYTAASLLESRFPKLGKALSSIYYPPVASVALSYPETAILPERLGSDGHLAGFGQLHPRTQGVTTLGTIYASSLFPGRVPEGKVLLLSYFGGATNTRVATMPHGEIVSQVDKDLRKMLIRSDAESPHTVNVTVWPRAIPQFNVGHTDLIQEAKDDLASQGWQGLHLGGNYVAGVALGKCMEAGYKQAAELASHVKSLAT
modifications: Synthetic (Protoporphyrinogen IX oxidase (ApPPO1) of Auxenochlorella protothecoides)
B2: V213C + Y422M: ApPPO1 (SEQ ID NO: 1) variant (protein)
chain: B1 chain with V213C, L215A, Y422M
modifications: Synthetic (Protoporphyrinogen IX oxidase (ApPPO1) of Auxenochlorella protothecoides)
B3: A215C + Y422M: ApPPO1 (SEQ ID NO: 1) variant (protein)
chain: B1 chain with L215C, Y422M
modifications: Synthetic (Protoporphyrinogen IX oxidase (ApPPO1) of Auxenochlorella protothecoides)
B4: A215L + Y422M: ApPPO1 (SEQ ID NO: 1) variant (protein)
chain: B1 chain with Y422M
modifications: Synthetic (Protoporphyrinogen IX oxidase (ApPPO1) of Auxenochlorella protothecoides)
B5: R140A + Y422M: ApPPO1 (SEQ ID NO: 1) variant (protein)
chain: B1 chain with R140A, L215A, Y422M
modifications: Synthetic (Protoporphyrinogen IX oxidase (ApPPO1) of Auxenochlorella protothecoides)

Tests used:
ApPPO1 [1] = test: Herbicide tolerance test of ApPPO1 wild type and variants in PPO-deficient E. coli BT3(ΔPPO), growth on herbicide-containing LB agar; type: cell-based, Auxenochlorella protothecoides; details: relative to ApPPO1 WT; for Herbicide tolerance, tiafenacil: up to 200 μM (FIGS. 7-12)
Protocol: Then, the extent of tolerance was evaluated.

ApPPO1 [2] = test: PPO enzyme activity of purified MBP-fused ApPPO1 wild type and variants; type: biochemical, Auxenochlorella protothecoides; details: PPO enzyme activity relative to ApPPO1 wild type; MBP-fused protein
Protocol: Thus, PPO proteins of wild type and variants were expressed as fused to MBP and were used for experiments.
The following process for purification of PPO protein was performed in a 4° C. cold room. […] The column was washed with 3 column volumes of buffer and the presence of protein in the washing solution was examined. When the protein was no longer detected, the washing procedure was terminated. Then, the MBP-PPO protein was eluted with approximately 2 column volumes of buffer containing 20 mM maltose. The protein concentration of each eluent was determined and the elution was stopped when the protein was no longer detected. Ten microliter of each fraction was investigated for protein quantification and SDS-PAGE analysis. The highly pure fractions of PPO protein variants were used for the enzyme assay.
Since protoporphyrinogen IX, a substrate of PPO protein, was not commercially available, it was chemically synthesized in the laboratory. Overall process was performed in dark under nitrogen stream. […] of protoporphyrin IX was dissolved in 20 ml of 20% (v/v) EtOH, and stirred under dark condition for 30 minutes. The obtained protoporphyrin IX solution was put into a 15 ml screw tube in an amount of 800 μl, and flushed with nitrogen gas for 5 minutes. To this, 1.5 g of sodium amalgam was added and vigorously shaken for 2 minutes. The lid was opened to exhaust hydrogen gas in the tube. Thereafter, the lid was closed and incubated for 3 minutes. The protoporphyrinogen IX solution was filtered using syringe and cellulose membrane filter. To 600 μl of the obtained protoporphyrinogen IX solution, approximately 300 μl of 2M MOPS [3-(N-morpholino) propanesulfonic acid] was added to adjust pH to 8.0. To determine the enzyme activity of PPO protein, a reaction mixture was prepared with the following composition (based on 10 ml): 50 mM Tris-Cl (pH 8.0); 50 mM NaCl; 0.04% (v/v) Tween 20; 40 mM glucose (0.072 g); 5 units glucose oxidase (16.6 mg); and 10 units catalase (1 μl).
Hundred and eighty microliters of a reaction mixture […] were placed in 96 well plates and 20 μl of purified PPO proteins were added. After 50 μl of the mineral oil was layered, the reaction was initiated by adding the substrate, protoporphyrinogen IX solution, to a final concentration of 50 μM. The reaction proceeded at room temperature for 30 min and the fluorescence of protoporphyrin IX was measured using Microplate reader (Sense, Hidex) (excitation: 405 nm; emission: 633 nm). To calculate the PPO enzyme activity, the protoporphyrinogen IX solution was kept open in the air overnight to oxidize the solution. To this, 2.7 N HCl was added, and the absorbance at 408 nm was measured. A standard curve was generated using standard protoporphyrin IX, and PPO activity was measured by calibration of protoporphyrin IX using the standard curve of protoporphyrin IX.
Activities of variants were presented relatively compared to that of wild type.

[3] = dark, up to 100 μM (FIGS. 7-12)
[4] = dark, up to 400 μM (FIGS. 7-12)

Molecule | Herbicide tolerance, pentoxazone (ApPPO1 [1]; light, up to 10 μM (FIG. 5)) | Herbicide tolerance, pyraflufenethyl (ApPPO1 [1]; light, up to 10 μM (FIG. 6)) | Herbicide tolerance, sulfentrazone (ApPPO1 [1]; light, up to 25 μM (FIG. 3)) | Herbicide tolerance, Fomesafen (ApPPO1 [1]; light, up to 25 μM (FIG. 4)) | Herbicide tolerance, acifluorfen (ApPPO1 [1]; light, up to 25 μM (FIG. 4)) | Herbicide tolerance, saflufenacil (ApPPO1 [1]; light, up to 100 μM (FIG. 2)) | Herbicide tolerance, flumioxazin (ApPPO1 [1]; light, up to 200 μM (FIG. 3)) | Activity (%) (ApPPO1 [2]) | Herbicide tolerance, flumioxazin (ApPPO1 [1]; [3]) | Herbicide tolerance, tiafenacil (ApPPO1 [1]; dark) | Herbicide tolerance, sulfentrazone (ApPPO1 [1]; [4])
B1 | ++ (10-99 fold higher tolerance) | +++ (100-999 fold higher tolerance) | +++ (100-999 fold higher tolerance) | +++ (100-999 fold higher tolerance) | +++ (100-999 fold higher tolerance) | ++++ (1,000-9,999 fold higher tolerance) | ++++ (1,000-9,999 fold higher tolerance) | 76% | – | – | –
B2 | – | – | – | – | – | – | – | 29% | +++ (100-999 fold higher tolerance) | +++++ (more than 10,000 fold higher tolerance) | ++ (10-99 fold higher tolerance)
B3 | – | – | – | – | – | – | – | 58% | +++++ (more than 10,000 fold higher tolerance) | +++++ (more than 10,000 fold higher tolerance) | ++++ (1,000-9,999 fold higher tolerance)
B4 | – | – | – | – | – | – | – | 34% | +++++ (more than 10,000 fold higher tolerance) | +++++ (more than 10,000 fold higher tolerance) | ++++ (1,000-9,999 fold higher tolerance)
B5 | – | – | – | – | – | – | – | 29% | ++++ (1,000-9,999 fold higher tolerance) | ++++ (1,000-9,999 fold higher tolerance) | ++++ (1,000-9,999 fold higher tolerance)
